Non-standard residues stand in square brackets, D forms with d. No end group written: not given here. Phe(4-NH2) = Nc1ccc(C[C@H](N)C(=O)O)cc1; 4Pal = N[C@@H](Cc1ccncc1)C(=O)O; Cha = N[C@@H](CC1CCCCC1)C(=O)O; 4Amb = NCc1ccc(C(=O)O)cc1; Ac3c = NC1(C(=O)O)CC1; Aib = CC(C)(N)C(=O)O
T1: human Y2 receptor (human, UniProt P49146 1-381)
T1 construct: whole, on cells; used as membrane fraction of hY2R/CHO cells; also called human NPY2R; hY2R
T1 sequence (looked up): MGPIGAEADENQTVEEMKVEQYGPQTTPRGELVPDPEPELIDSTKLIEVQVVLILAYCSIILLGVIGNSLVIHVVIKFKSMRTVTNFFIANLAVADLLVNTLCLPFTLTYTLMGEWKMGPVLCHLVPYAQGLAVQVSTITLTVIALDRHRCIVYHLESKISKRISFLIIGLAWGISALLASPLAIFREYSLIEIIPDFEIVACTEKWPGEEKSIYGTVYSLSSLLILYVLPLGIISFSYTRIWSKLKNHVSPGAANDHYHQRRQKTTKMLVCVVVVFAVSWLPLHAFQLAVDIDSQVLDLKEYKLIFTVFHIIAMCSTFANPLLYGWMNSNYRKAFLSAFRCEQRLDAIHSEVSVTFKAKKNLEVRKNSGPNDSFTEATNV

B1: Ac-[Glu23, D-Pro24, Pya(4)26, Cha27,36, Tyr28, Lys30, Aib31]-PYY(23-36) (peptide)
peptide: Ac-E[dP]R[4Pal][Cha]YNK[Aib]TRQR[Cha]-NH2
SMILES: CC(=O)N[C@@H](CCC(=O)O)C(=O)N1CCC[C@@H]1C(=O)N[C@@H](CCCNC(=N)N)C(=O)N[C@@H](Cc1ccncc1)C(=O)N[C@@H](CC1CCCCC1)C(=O)N[C@@H](Cc1ccc(O)cc1)C(=O)N[C@@H](CC(N)=O)C(=O)N[C@@H](CCCCN)C(=O)NC(C)(C)C(=O)N[C@H](C(=O)N[C@@H](CCCNC(=N)N)C(=O)N[C@@H](CCC(N)=O)C(=O)N[C@@H](CCCNC(=N)N)C(=O)N[C@@H](CC1CCCCC1)C(N)=O)[C@@H](C)O
notes: also called compound No. 139
B2: Ac-[D-Pro24, Cha27,28,36, Acpc31]-PYY(23-36) (peptide)
peptide: Ac-S[dP]RH[Cha][Cha]NL[Ac3c]TRQR[Cha]-NH2
SMILES: CC(=O)N[C@@H](CO)C(=O)N1CCC[C@@H]1C(=O)N[C@@H](CCCNC(=N)N)C(=O)N[C@@H](Cc1c[nH]cn1)C(=O)N[C@@H](CC1CCCCC1)C(=O)N[C@@H](CC1CCCCC1)C(=O)N[C@@H](CC(N)=O)C(=O)N[C@@H](CC(C)C)C(=O)NC1(C(=O)N[C@H](C(=O)N[C@@H](CCCNC(=N)N)C(=O)N[C@@H](CCC(N)=O)C(=O)N[C@@H](CCCNC(=N)N)C(=O)N[C@@H](CC2CCCCC2)C(N)=O)[C@@H](C)O)CC1
notes: also called compound No. 131
B3: Ac-[D-Pro24, Cha27,28, Aib31]-PYY(23-36) (peptide)
peptide: Ac-S[dP]RH[Cha][Cha]NL[Aib]TRQRY-NH2
SMILES: CC(=O)N[C@@H](CO)C(=O)N1CCC[C@@H]1C(=O)N[C@@H](CCCNC(=N)N)C(=O)N[C@@H](Cc1c[nH]cn1)C(=O)N[C@@H](CC1CCCCC1)C(=O)N[C@@H](CC1CCCCC1)C(=O)N[C@@H](CC(N)=O)C(=O)N[C@@H](CC(C)C)C(=O)NC(C)(C)C(=O)N[C@H](C(=O)N[C@@H](CCCNC(=N)N)C(=O)N[C@@H](CCC(N)=O)C(=O)N[C@@H](CCCNC(=N)N)C(=O)N[C@@H](Cc1ccc(O)cc1)C(N)=O)[C@@H](C)O
notes: also called compound No. 142
B4: Ac-[D-Pro24, Cha27,28, Aib31, Phe36]-PYY(23-36) (peptide)
peptide: Ac-S[dP]RH[Cha][Cha]NL[Aib]TRQRF-NH2
SMILES: CC(=O)N[C@@H](CO)C(=O)N1CCC[C@@H]1C(=O)N[C@@H](CCCNC(=N)N)C(=O)N[C@@H](Cc1c[nH]cn1)C(=O)N[C@@H](CC1CCCCC1)C(=O)N[C@@H](CC1CCCCC1)C(=O)N[C@@H](CC(N)=O)C(=O)N[C@@H](CC(C)C)C(=O)NC(C)(C)C(=O)N[C@H](C(=O)N[C@@H](CCCNC(=N)N)C(=O)N[C@@H](CCC(N)=O)C(=O)N[C@@H](CCCNC(=N)N)C(=O)N[C@@H](Cc1ccccc1)C(N)=O)[C@@H](C)O
notes: also called compound No. 143
B5: 4-Aminomethylbenzoyl-[Ala26, Ile28,31, Phe(4NH2)36]-PYY(25-36) (peptide)
peptide: [4Amb]RAYINLITRQR[Phe(4-NH2)]-NH2
modifications: N-terminus assumed
SMILES: CC[C@H](C)[C@H](NC(=O)[C@H](Cc1ccc(O)cc1)NC(=O)[C@H](C)NC(=O)[C@H](CCCNC(=N)N)NC(=O)c1ccc(CN)cc1)C(=O)N[C@@H](CC(N)=O)C(=O)N[C@@H](CC(C)C)C(=O)N[C@H](C(=O)N[C@H](C(=O)N[C@@H](CCCNC(=N)N)C(=O)N[C@@H](CCC(N)=O)C(=O)N[C@@H](CCCNC(=N)N)C(=O)N[C@@H](Cc1ccc(N)cc1)C(N)=O)[C@@H](C)O)[C@@H](C)CC
notes: also called compound No. 12

These binders were tested against T1, human Y2 receptor (assay: RBA: [125I]-PYY displacement, hY2R/CHO membranes).
Outline: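 Bound radioligand was collected by filtration on PEI-treated GF/C filters, washed with Tris/MgCl₂/NaCl/CHAPS buffer pH 7.4, and counted by scintillation; IC₅₀ values were calculated.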

IC50 Ratio (vs PYY(3-36)) [ratio] | Binder
2.2 | B1
7 | B2
3.2 | B3
2.9 | B4
12 | B5

What follows are binders tested against T1, human Y2 receptor (assay: cell-based or functional assay).

GBA EC50 Ratio (vs PYY(3-36)), [35S]GTPγS [ratio] | Binder
1.2 | B1
3.6 | B2
1.1 | B3
0.85 | B4
5 | B5

Source: US20120172293A1 (Takeda / Millennium, published 2012)
